Measurements published in article PMC6882858, “Seryl tRNA synthetase cooperates with POT1 to regulate telomere length and cellular senescence”.

B1: Control random DNA (dsDNA)
DNA 1: TCGAAGTCGAAGCATGGGTCGAAGCATGGG
DNA 2: CCCATGCTTCGACCCATGCTTCGACTTCGA
B2: Telomere [TTAGGG]5 (dsDNA)
DNA 1: TTAGGGTTAGGGTTAGGGTTAGGGTTAGGG
DNA 2: CCCTAACCCTAACCCTAACCCTAACCCTAA
B3: VEGFA promoter (dsDNA)
DNA 1: GGCGGGGCGGAGCCATGCGCCCCCCCCTTT
DNA 2: AAAGGGGGGGGCGCATGGCTCCGCCCCGCC

Molecular target: SerRS (seryl-tRNA synthetase) (human, UniProt P49591 1-514)
Sequence (P49591 whole entry): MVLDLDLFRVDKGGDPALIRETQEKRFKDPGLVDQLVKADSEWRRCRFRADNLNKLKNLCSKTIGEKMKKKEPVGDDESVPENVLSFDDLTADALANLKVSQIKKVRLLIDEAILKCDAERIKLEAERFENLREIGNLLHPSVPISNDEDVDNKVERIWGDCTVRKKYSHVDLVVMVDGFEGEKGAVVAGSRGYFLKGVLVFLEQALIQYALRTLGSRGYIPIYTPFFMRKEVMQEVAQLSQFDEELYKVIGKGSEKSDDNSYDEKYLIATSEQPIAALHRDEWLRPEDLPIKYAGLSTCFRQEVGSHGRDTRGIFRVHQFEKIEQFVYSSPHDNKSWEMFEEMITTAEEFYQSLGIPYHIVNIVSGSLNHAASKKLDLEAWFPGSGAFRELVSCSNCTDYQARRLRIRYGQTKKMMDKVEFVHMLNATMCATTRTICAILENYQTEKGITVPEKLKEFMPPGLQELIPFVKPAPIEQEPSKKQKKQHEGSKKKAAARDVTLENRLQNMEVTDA
Test: EMSA; 5 mM MgCl2, poly(dG-dC); 20 mM Tris-HCl pH 8.0, 60 mM KCl, 5 mM MgCl2, 0.1 mg/mL BSA, 10 ng/uL poly(dG-dC), 1 mM DTT, 0.8 pmol labeled DNA, 30 min, room temperature; 5% native PAGE
Conditions: protein: recombinant; tags: His6 (pET20b; Ni-NTA); chain copies: 2; label: 5' 32P; blunt

Binder | binding result
B1 | no binding
B2 | binds
B3 | binds
